Starred links: 1 amine or outer side, 2 acyl side, 3 side chain; linkers in the order of their positions; H or OH if unused. Non-standard residues stand in square brackets, D forms with d. No end group written: not given here. NMe2F‑APPA = N-methyl-2-amino-5-(2-fluorophenyl)pentanoic acid, CN([C@@H](CCCc1ccccc1F)C(=O)[*:2])[*:1]; ACPP = 2-amino-5-(3-chlorophenyl)pentanoic acid, O=C([C@H](CCCc1cccc(Cl)c1)N[*:1])[*:2]; 2Cl,4OMe‑APPA = 2-amino-5-(2-chloro-4-methoxyphenyl)pentanoic acid; Bip(2'-Et-4'-OMe) = CCc1cc(OC)ccc1-c1ccc(C[C@H](N)C(=O)O)cc1; 2F‑APPA = 2-amino-5-(2-fluorophenyl)pentanoic acid; αMePhe(2-F) = C[C@](N)(Cc1ccccc1F)C(=O)O; NMeBip(OMe) = N-methylated Bip(OMe); hhPhe = N[C@@H](CCCc1ccccc1)C(=O)O; NMeD = CN[C@@H](CC(=O)O)C(=O)O; aThr = C[C@H](O)[C@H](N)C(=O)O; αMeP = C[C@@]1(C(=O)O)CCCN1; NMeAPPA = not defined here; CNB = not defined here; Aib = CC(C)(N)C(=O)O
Legend:
[1] = target: human glucagon receptor (human, UniProt P47871 26-477); experiment: cell-based or functional assay
[2] = target: human GLP-1 receptor (human, UniProt P43220 24-463); experiment: cell-based or functional assay
Chain of human GLP-1 receptor (P43220 24-463): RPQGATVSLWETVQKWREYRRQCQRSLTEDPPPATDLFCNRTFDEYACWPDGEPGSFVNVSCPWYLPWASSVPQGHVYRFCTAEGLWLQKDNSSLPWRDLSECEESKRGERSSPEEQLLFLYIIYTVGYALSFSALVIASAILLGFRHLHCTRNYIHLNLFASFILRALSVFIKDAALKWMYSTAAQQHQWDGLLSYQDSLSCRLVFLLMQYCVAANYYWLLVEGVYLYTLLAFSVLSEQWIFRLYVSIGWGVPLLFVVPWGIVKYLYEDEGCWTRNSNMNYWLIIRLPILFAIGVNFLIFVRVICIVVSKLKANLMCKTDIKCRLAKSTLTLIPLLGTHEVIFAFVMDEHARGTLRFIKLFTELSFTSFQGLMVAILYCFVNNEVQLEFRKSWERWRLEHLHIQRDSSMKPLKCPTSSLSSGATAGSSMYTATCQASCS

| inhibition of cAMP production, 1 nM [1] [pmol/ml/µg prt] | inhibition of cAMP production, 10 nM [1] [pmol/ml/µg prt] | inhibition of cAMP production, 100 nM [1] [pmol/ml/µg prt] | inhibition of cAMP production, 1 µM [1] [pmol/ml/µg prt] | inhibition of cAMP production, 10 µM [1] [pmol/ml/µg prt] | cAMP release, % activity, 1 nM [2] [%] | cAMP release, % activity, 10 nM [2] [%] | cAMP release, % activity, 100 nM [2] [%] | cAMP release, % activity, 1 µM [2] [%] | cAMP release, % activity, 10 µM [2] [%] | Binder |
| --- | --- | --- | --- | --- | --- | --- | --- | --- | --- | --- |
| 18 | 16 | 12 | 8 | 6 | 38 | 77 | 85 | 94 | 97 | H[Aib][CNB]G[aThr][αMePhe(2-F)]TSD[Bip(2'-Et-4'-OMe)][hhPhe] (reading uncertain) [Seq. ID. No. 110: H-Aib-(CNB)-G-T(allo)-(α-Me-2F-Phe)-TSD-Bip(OMe)-(APPA)] |
| 19 | 17 | 15 | 14 | 12 | 96 | 99 | 99 | 99 | 99 | H[Aib][CNB]G[aThr][αMePhe(2-F)][aThr]SD[Bip(2'-Et-4'-OMe)][hhPhe] (reading uncertain; also: thioamide bond between residues 10 and 11) [Seq. ID. No. 166: H-Aib-(CNB)-G-T(allo)-(α-Me-2F-Phe)-T(allo)-SD-Bip(OMe)-(C═S)-(APPA)] |
| 3 | 0 | 0 | 0 | 0 | 99 | 99 | 99 | 99 | 99 | H[αMeP]QGTFTSD[Bip(2'-Et-4'-OMe)][ACPP] [Seq. ID. No. 11: H-(α-Me-Pro)-QGTFTSD-Bip(OMe)-(ACPP)] |
| 5 | 2 | 0 | 0 | 0 | 86 | 99 | 99 | 99 | 99 | H[Aib][CNB]G[aThr][αMePhe(2-F)][aThr]S[NMeD][NMeBip(OMe)][NMe2F‑APPA] (reading uncertain) |
| 5 | 3 | 0 | 0 | 0 | 55 | 89 | 93 | 99 | 99 | H[Aib][CNB]G[aThr][αMePhe(2-F)][aThr]SD[NMeBip(OMe)][NMe2F‑APPA] (reading uncertain) [Seq. ID. No. 144: H-Aib-(CNB)-G-T(allo)-(α-Me-2F-Phe)-T(allo)-SD-((NMe)Bip(OMe))-((NMe)(2F-APPA))] |
| 5 | 3 | 1 | 0 | 0 | 39 | 81 | 89 | 96 | 99 | H[Aib][CNB]G[aThr][αMePhe(2-F)][aThr]SD[Bip(2'-Et-4'-OMe)][NMeAPPA] (reading uncertain) [Seq. ID. No. 130: H-Aib-(CNB)-G-T(allo)-(α-Me-2F-Phe)-T(allo)-SD-Bip(OMe)-((NMe)(APPA))] |
| 4 | 2 | 0 | 0 | 0 | 82 | 87 | 92 | 99 | 99 | H[Aib][CNB]G[aThr][αMePhe(2-F)][aThr]SD[Bip(2'-Et-4'-OMe)][hhPhe] (reading uncertain) [Seq. ID. No. 114: H-Aib-(CNB)-G-T(allo)-(α-Me-2F-Phe)-T(allo)-SD-Bip(OMe)-(APPA)] |
| 4 | 2 | 0 | 0 | 0 | 38 | 77 | 85 | 94 | 97 | H[Aib][CNB]GTFTSD[Bip(2'-Et-4'-OMe)][2Cl,4OMe‑APPA] (reading uncertain) [Seq. ID. No. 84: H-Aib-(CNB)-GTFTSD-Bip(OMe)-(2Cl,4OMe-APPA)] |
| 0 | 0 | 0 | 0 | 0 | 99 | 99 | 99 | 99 | 99 | H[Aib][CNB]GT[αMePhe(2-F)][aThr]SD[Bip(2'-Et-4'-OMe)][2F‑APPA] (reading uncertain) [Seq. ID. No. 120: H-Aib-(CNB)-GT-(α-Me-2F-Phe)-T(allo)-SD-Bip(OMe)-(2F-APPA)] |
| 9 | 6 | 5 | 3 | 0 | 60 | 92 | 98 | 99 | 99 | H[Aib][CNB]G[aThr][αMePhe(2-F)][aThr]S[NMeD][NMeBip(OMe)][NMeAPPA] (reading uncertain) [Seq. ID. No. 154: H-Aib-(CNB)-G-T(allo)-(α-Me-2F-Phe)-T(allo)-S-(NMe)D-((NMe)Bip(OMe))-((NMe)(APPA))] |
| 6 | 5 | 2 | 0 | 0 | 39 | 81 | 89 | 96 | 99 | H[Aib][CNB]G[aThr][αMePhe(2-F)]TSD[Bip(2'-Et-4'-OMe)][2F‑APPA] (reading uncertain) [Seq. ID. No. 112: H-Aib-(CNB)-G-T(allo)-(α-Me-2F-Phe)-TSD-Bip(OMe)-(2F-APPA)] |
| 2 | 0 | 0 | 0 | 0 | 55 | 88 | 92 | 99 | 99 | H[Aib][CNB]G[aThr][αMePhe(2-F)][aThr]SD[Bip(2'-Et-4'-OMe)][2F‑APPA] (reading uncertain) [Seq. ID. No. 116: H-Aib-(CNB)-G-T(allo)-(α-Me-2F-Phe)-T(allo)-SD-Bip(OMe)-(2F-APPA)] |

Source: patent US20120021972A1 (CADILA HEALTHCARE, published 2012)
